The values below come from patent publication US20040253243.

In data set [1] the target is PDGF-AB (Homo sapiens) (UniProt P04085+P01127). The note with it: [PEG40K]-NH2-dCdAdGdGdCfUdAfCmG-PEG-dCdGTdAmGdAmGdCdAfUfCmA-PEG-TdGdATfCfCfUmG-3T (f 2'-F, m 2'-OMe, d deoxy; PEG spacers).
Data set [2] has as its target PDGF-BB (Homo sapiens) (UniProt P01127). The note with it: [PEG40K]-NH2-dCdAdGdGdCfUdAfCmG-PEG-dCdGTdAmGdAmGdCdAfUfCmA-PEG-TdGdATfCfCfUmG-3T (f 2'-F, m 2'-OMe, d deoxy; PEG spacers).

Chain of PDGF-AB (Homo sapiens) (P01127 82-190, chain 2 of 2, other chains not shown): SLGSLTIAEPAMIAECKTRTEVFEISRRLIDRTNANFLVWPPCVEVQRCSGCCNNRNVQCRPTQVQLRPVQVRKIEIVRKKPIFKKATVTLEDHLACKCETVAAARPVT
Chain of PDGF-BB (Homo sapiens) (P01127 82-190): as the sequence (P01127 82-190, chain 2 of 2, other chains not shown) above

With CAGGCUACGCGTAGAGCAUCATGATCCUG [ARC127], the Kd in data set [1] and in data set [2] was 0.1 nM throughout.
